Reference: publication PMC6355003 (2019)

B1: Drp1 (dynamin-related protein Drp1), wild type [not stated] / GST-MiD51^133-463, wild type [human] (parent complex)
chain 1: MEALIPVINKLQDVFNTVGADIIQLPQIVVVGTQSSGKSSVLESLVGRDLLPRGTGIVTRRPLILQLVHVSQEDKRKTTGEENGVEAEEWGKFLHTKNKLYTDFDEIRQEIENETERISGNNKGVSPEPIHLKIFSPNVVNLTLVDLPGMTKVPVGDQPKDIELQIRELILRFISNPNSIILAVTAANTDMATSEALKISREVDPDGRRTLAVITKLDLMDAGTDAMDVLMGRVIPVKLGIIGVVNRSQLDINNKKSVTDSIRDEYAFLQKKYPSLANRNGTKYLARTLNRLLMHHIRDCLPELKTRINVLAAQYQSLLNSYGEPVDDKSATLLQLITKFATEYCNTIEGTAKYIETSELCGGARICYIFHETFGRTLESVDPLGGLNTIDILTAIRNATGPRPALFVPEVSFELLVKRQIKRLEEPSLRCVELVHEEMQRIIQHCSNYSTQELLRFPKLHDAIVEVVTCLLRKRLPVTNEMVHNLVAIELAYINTKHPDFADACGLMNNNIEEQRRNRLARELPSAVSRDKVASGGGGVGDGVQEPTTGNWRGMLKTSKAEELLAEEKSKPIPIMPASPQKGHAVNLLDVPVPVARKLSAREQRDCEVIERLIKSYFLIVRKNIQDSVPKAVMHFLVNHVKDTLQSELVGQLYKSSLLDDLLTESEDMAQRRKEAADMLKALQGASQIIAEIRETHLW
chain 2: MSLQEKLLTYYRNRAAIPAGEQARAKQAAVDICAELRSFLRAKLPDMPLRDMYLSGSLYDDLQVVTADHIQLIVPLVLEQNLWSCIPGEDTIMNVPGFFLVRRENPEYFPRGSSYWDRCVVGGYLSPKTVADTFEKVVAGSINWPAIGSLLDYVIRPAPPPEALTLEVQYERDKHLFIDFLPSVTLGDTVLVAKPHRLAQYDNLWRLSLRPAETARLRALDQADSGCRSLCLKILKAICKSTPALGHLTASQLTNVILHLAQEEADWSPDMLADRFLQALRGLISYLEAGVLPSALNPKVNLFAELTPEEIDELGYTLYCSLSEPEVLLQT

Variants of: B1
Experiment: GST pull-down, SDS-PAGE band quantification; parent: 0.15; read off a plot

First: chain 1 G350D, chain 1 A395D
Second: chain 1 G401A, chain 1 P402A, chain 1 R403A, chain 1 P404A
The response of the first is lower: ~0.01 molar ratio for the first, ~0.064 molar ratio for the second.

Going from chain 1 A395D to chain 1 S579D, the response rises from ~0.084 molar ratio to ~0.19 molar ratio.

First: chain 1 G350D, chain 1 G401A, chain 1 P402A, chain 1 R403A, chain 1 P404A
Second: chain 1 G350D
The response of the first is lower: ~0.017 molar ratio for the first, ~0.089 molar ratio for the second.

Going from chain 1 S600D to chain 1 A395D, chain 1 G401A, chain 1 P402A, chain 1 R403A, chain 1 P404A, the response falls from ~0.16 molar ratio to ~0.012 molar ratio.

Variants of: B1
Experiment: GST pull-down, SDS-PAGE band quantification; parent: 0.3; read off a plot

Compared with chain 2 E107R, chain 2 Y108A is lower in response: ~0.42 molar ratio for the first, ~0.058 molar ratio for the second.

First: chain 2 R111E
Second: chain 2 F109A
The response of the first is higher: ~0.082 molar ratio for the first, ~0.055 molar ratio for the second.

Compared with chain 2 S285Q, chain 2 R102E is lower in response: ~0.33 molar ratio for the first, ~0.082 molar ratio for the second.
